Data on one molecule can be found in patent US20190248900A1 (Y BIOLOGICS, published 2019).

Experiment [1] concerns the target T1, PD1-hFc (human, UniProt Q15116 25-170).
T1 construct: extracellular domain; also called PD1-hFc protein; Human PD-1-Fc (S1420, Y-Biologics)
Put plainly: ProteOn XPR36; legend names PD1-hFc, the sheet names the immobilised protein PD-1 C-his.

For experiment [2], the target named is T2, monkey PD1 protein (monkey).
T2 construct: also called monkey PD-1 proteins
Put plainly: SPR ProteOn XPR36; format for monkey PD1 not described.

The target of experiment [3] is T3, ITGA6-Fc.
T3 construct: Fc fusion
T3 sequence (P23229 whole entry, species assumed, looked up): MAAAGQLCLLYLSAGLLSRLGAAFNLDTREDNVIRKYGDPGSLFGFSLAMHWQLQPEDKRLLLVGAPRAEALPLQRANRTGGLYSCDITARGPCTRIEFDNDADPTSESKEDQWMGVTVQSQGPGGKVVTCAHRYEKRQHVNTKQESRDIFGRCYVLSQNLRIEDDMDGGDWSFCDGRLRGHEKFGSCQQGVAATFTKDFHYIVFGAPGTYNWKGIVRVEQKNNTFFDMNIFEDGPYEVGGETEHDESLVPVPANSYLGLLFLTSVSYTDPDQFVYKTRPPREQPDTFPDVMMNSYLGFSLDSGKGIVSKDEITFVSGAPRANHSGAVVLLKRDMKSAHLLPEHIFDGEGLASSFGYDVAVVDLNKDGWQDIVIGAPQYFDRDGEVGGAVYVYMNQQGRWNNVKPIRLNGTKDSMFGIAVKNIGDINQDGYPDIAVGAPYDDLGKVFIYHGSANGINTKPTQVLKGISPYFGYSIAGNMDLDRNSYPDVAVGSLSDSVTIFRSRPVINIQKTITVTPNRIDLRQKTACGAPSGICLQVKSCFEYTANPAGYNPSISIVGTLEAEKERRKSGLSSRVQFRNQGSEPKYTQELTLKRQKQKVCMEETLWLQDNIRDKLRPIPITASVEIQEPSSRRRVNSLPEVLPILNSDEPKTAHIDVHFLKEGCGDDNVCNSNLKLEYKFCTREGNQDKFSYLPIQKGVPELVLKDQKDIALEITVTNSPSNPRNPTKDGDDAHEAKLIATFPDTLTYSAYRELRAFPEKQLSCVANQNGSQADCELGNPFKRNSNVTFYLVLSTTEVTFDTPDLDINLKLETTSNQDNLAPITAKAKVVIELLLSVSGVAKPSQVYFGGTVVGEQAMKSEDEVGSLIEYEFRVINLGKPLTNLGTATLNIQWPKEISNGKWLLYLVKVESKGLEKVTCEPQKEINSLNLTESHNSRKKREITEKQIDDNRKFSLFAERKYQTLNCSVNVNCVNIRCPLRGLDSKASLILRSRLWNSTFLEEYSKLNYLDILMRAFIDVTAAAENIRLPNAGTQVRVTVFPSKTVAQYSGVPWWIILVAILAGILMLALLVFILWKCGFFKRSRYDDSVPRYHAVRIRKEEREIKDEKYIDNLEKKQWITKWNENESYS
Description: ELISA, 1 ug/ml. For orientation: An ELISA detects its analyte on a solid surface through an enzyme-linked reagent.

The target in experiment [4] is T4, M7.
T4 construct: also called PD1 mutant M7
Description: ELISA, 1 ug/ml.

The target of experiment [5] is T5, M11.
T5 construct: also called PD1 mutant M11
Description: ELISA, 1 ug/ml.

The target of experiment [6] is T1, PD1-hFc. Put plainly: SPR ProteOn XPR36, PD1-hFc immobilised, antibody as analyte. The protocol:
A ProteOn XPR36 (BioRad) instrument was used. The GLC sensor chip (BioRad) was mounted on the instrument and washed with PBST buffer, and the carboxymethyldextran surface was activated with an EDC/sulfo-NHS mixed solution. PD1-hFc dissolved at a concentration of 5 ug/ml in a 10 mM sodium acetate buffer solution (pH 5.0) was injected and immobilized on the GLC sensor chip.
In order to deactivate the activated carboxyl groups that remain unreacted with the PD1 protein, 1 M ethanolamine was flowed and 10 mM glycine (pH 2.0) was injected in order to wash proteins that remain unbound to the sensor chip.
The equilibrium dissociation constant (KD) was calculated by plotting and fitting the sensogram data in the equilibrium state depending on concentration.

Experiment [7] concerns the target T6, rat PD1 protein (rat, UniProt D3ZIN8 25-169).
T6 construct: also called rat PD-1 proteins
T6 sequence: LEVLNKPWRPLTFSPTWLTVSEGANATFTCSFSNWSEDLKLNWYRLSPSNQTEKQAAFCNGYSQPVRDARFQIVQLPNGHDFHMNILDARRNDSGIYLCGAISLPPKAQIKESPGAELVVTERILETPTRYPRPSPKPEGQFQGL
Put plainly: SPR ProteOn XPR36; format for rat PD1 not described.

The target in experiment [8] is T7, human PD-1 (NM_005018.2) over-expressed on cells (human, UniProt Q15116 25-288). Put plainly: cell-based or functional assay.
For experiment [9], the target named is T8, PD-1-His (S1352, Y-Biologics) (UniProt Q15116 25-170, limits assumed).
T8 construct: not shown: His tag
Put plainly: competition ELISA: PD-L2-Fc coated, PD-1-His as binder, antibody as competitor. The protocol:
(§1) Human PD-1-Fc (S1420, Y-Biologics) or PD-L2-Fc (#10292-H02H, Sino) was added to wells of a 96-well immuno microplate (#439454, Thermo) and then washed three times with PBS containing 0.05% tween-20 (#P9416, Sigma-Aldrich), followed by allowing to stand in a cleaning solution containing 4% skim milk (#232120, Becton, Dickinson and Company) at room temperature for 1 hour to block non-specific binding. […] After the resulting product was subjected to the same washing method as above, the anti-Biotin-His antibody (#MA1-21315-BTIN, Thermo) diluted to 1:2000 was added to the well of the microplate, allowed to react at room temperature for 1 hour, streptavidin poly-HRP antibody (#21140, Pierce) diluted to 1:5000 was added to the well of microplate, reacted at room temperature for 1 hour and then washed in the same manner. 100 ul of a TMB substrate solution (#T0440, Sigma-Aldrich) was added to the reaction product, light was shielded, and the reaction product was allowed to stand at room temperature for 3 minutes, 50 μL of 2.5 M sulfuric acid (#S1478, Samchun) was added to stop the reaction, and absorbance was measured at 450 nm using a spectrophotometer (*GM3000, Glomax® Discover System Promega).

Experiment [10] concerns the target T7, human PD-1 (NM_005018.2) over-expressed …. Put plainly: flow cytometry on cells over-expressing human PD-1, fit of Geometric Mean. On the technique in general: In flow cytometry, cells or beads pass a laser one at a time.
The target in experiment [11] is T1, PD1-hFc. Put plainly: competition ELISA: PD1-Fc coated, PDL1-His as binder, antibody as competitor. On the procedure: as §1
Experiment [12] has as its target T7, human PD-1 (NM_005018.2) over-expressed …. Description: cell-based or functional assay. The source holds these as a separate data set.

Where only a bound is given, the exact number is not on record here.

B1: PD1-49A2(A/2B9) (antibody, V domains shown)
VH: QVQLVESGGGVVQPGRSLRLSCAASGFTFLRYAMHWVRQAPGKGLEWVAVISYDGRYKYYADSVKGRFTISRDNSKNTLYLQMNSLRAEDTAVYYCTTTTFDSWGQGTLVTVSS
VL: DIVMTQTPLSLPVTPGEAASISCRSSQSLLDSEDGNTYLDWYLQKPGQSPQLLIYTLSHRASGVPDRFSGSGSGTDFTLEISRVEAEDVGVYYCMQRRDFPFTFGQGTKVDIK
notes: scFv-phage in the screening ELISA; whole IgG in the other assays; also called 49A2-2B9; 49A2 (2B9)
What is called Kd is the concentration at which binding is half-saturated. The term koff denotes a measure of how fast the partners let go of each other. As a reminder, the kon is the rate constant with which the complex forms. What is called IC50 is the midpoint of a concentration-inhibition curve. For orientation: EC50 means the concentration at which the effect is half-maximal. Take B1: the Kd in experiment [1] was below 0.001 nM; in experiment [2] it was 0.001 nM; in experiment [7], 4.23 nM; in [10] it was 6.2 nM. The off-rate constant (koff) is below 1e-07 s⁻¹ in [1], 1e-07 s⁻¹ in experiment [2] and 0.000625 s⁻¹ in experiment [7]. In addition, the kon in experiment [2] was found to be 185000 M⁻¹ s⁻¹; in experiment [6], 377000 M⁻¹ s⁻¹; in [7] it was 148000 M⁻¹ s⁻¹. The OD490 in [3] amounted to 0.1; in experiment [4] it was 0.083; in [5], 0.433. The “EC50 [nM], PD1/PD-L1 blockade bioassay” value in [8] came out at 1.23 nM. The figures for the IC50 in experiment [9] and in [11] were 59 nM and 6.38 nM, respectively. Besides, the Bmax in experiment [10] is 2900. The molecule further gave an EC50 in [12] of 0.689 nM.
